Tests used:
[1] = test system: BE2C cells; assay: Dopamine toxicity in BE2C cells, viability by Neutral red staining; assay type: cell-based, human; settings: for cell survival at high Dopamine concentrations compared to control: BE2C cells, infection and transfection, Dopamine 24 hours, vs empty vector (FIG. 4 and 5); for protection of cells (Neutral red staining): 24 hours after exposure to high dopamine concentrations
Description: The aim of the experiment was validation of the fragment of KIAA0538 found using Dopamine selection (SEQ. I.D. No 94) which has 253 nucleotides. A slightly smaller fragment was used , wherein the first 12 of the nucleotides of SEQ. I.D. No 94 were replaced with 5 different nucleotides. The location of this smaller fragment (having 246 nucleotides) within the KIAA0538 cDNA is from nucleotide 2020 to nucleotide 2265. For purpose of validation, cells were studied either after decrease of the gene expression by means of transfection or transduction with an antisense expressing vector (the fragment rescued from the library during the functional screening), or after increased gene expression using transfection with a full length expression vector. For experiment, BE2C cells were seeded into 6-well plates at density 100,000 cells/well. Retroviral vector expressing KIAA0538 antisense fragment (rescued in functional selection) fragment or empty vector (pLXSN) were introduced in neuroblastoma cells by two different methods—transfection using Fugen6 reagent (Rosh) or by retroviral infection. Population of transfected/transduced cells was enriched by 3 days G418 selection. BE2C cells were further treated with different concentrations of Dopamine for 24 hours and assayed for viability by Neutral red staining (FIG. 4—infection; FIG. 5—transfection).

[2] = test system: P19 cells; assay: Colony formation assay in P19 cells, normoxic or ischemic conditions; assay type: cell-based, mouse; settings: vs empty vector (FIG. 6)
Method: FIG. 6B is a graphical representation of FIG. 6A.
The effect of the full length KIAA0538 cDNA on cell survival was tested in colony formation assay in non-differentiated P19 cells stably expressing Tet-activator (confers high level of expression from responsive promoters). P19 cells were transfected with eithet empty vector or the same vector containing the full-length KIAA0538 cDNA under the control of Tet-repressible promoter. The number of transfected cells further taken for colony formation assay was normalized by cotransfection with GFP, so that the equal number of GFP-positive cells was taken for the assay. The cells were further plated and grown in the absence of tetracycline (to ensure the gene's expression) and in the presence of hygromycin (selectable marker) for 48 hours. Then part of the plates were subjected to 16 hours ischemia (0.5% O2 and no glucose) and following the transfer into normoxic conditions were further grown until the accomplishing of hygromycin selection (death of mock-transfected cells). The cell colonies grown in plates were fixed, stained with methylene blue and photographed with a CCD camera (FIG. 6). The area of the colonies was quantified using the IMAGE-Pro program.

Molecule	cell survival at high Dopamine concentrations compared to control ([1]; listed as KIAA0538 antisense fragment)	cell survival at high Dopamine concentrations compared to control ([1]; listed as antisense KIAA0538 fragment)	cell survival at high Dopamine concentrations compared to control ([1]; listed as antisense fragment of KIAA0538)	protection of cells (Neutral red staining) ([1]; retrovirally infected BE2C cells, vs control vector pLXSN (FIG. 4))	protection of cells (Neutral red staining) ([1]; transiently transfected BE2C cells, vs control vector pLXSN (FIG. 5))	effect on cell survival, colony formation ([2]; 16 hours ischemia (0.5% O2 and no glucose))	effect on cell survival, colony formation ([2]; 16 hours ischemia (0.5% O2 and no glucose), listed as KIAA0538)	effect on cell survival, colony formation ([2]; 16 hours ischemia (0.5% O2 and no glucose), listed as full-length cDNA)	effect on cell survival, colony formation ([2]; normoxic conditions, listed as KIAA0538)	effect on cell survival, colony formation ([2]; normoxic conditions, listed as full-length cDNA)
SEQ ID No 94: library-derived antisense cDNA fragment of KIAA 0538, expressed from retroviral vector pLXSN (nucleic acid, listed as Homo sapiens, expressed from retroviral vector pLXSN; (156)..(238) n, library-derived antisense cDNA fragment of KIAA 0538, expressed from retroviral vector pLXSN) antisense: TTAAAACTGCTTACCAGTGGCTGTCTGCGCTGCGGAAGGTGAGCATCAACAACACGGGACTGTTGGGCTCCTACCACCCTGGCGTCTTCCGTGGGGACAAGTGGAGCTGCTGCCACCAAAAAGAGAAGACAGGTCAGGGCTGCGATAAGACCCGGNCACGGGTGACCCTGCAGGAGTGGAATGACCCTNTTGACCGTGACCTTGAGGCCCANCTCATCTACCGGCACCTGCTGGGCGNGGAGGCCATGCTGTG	rescue of cells from apoptotic death	protects	increased cell survival	protection	protection	–	–	–	–	–
full length cDNA clone of KIAA 0538: full-length KIAA0538 cDNA under the control of Tet-repressible promoter, transfected into P19 cells (nucleic acid, listed as Homo sapiens, under Tet-repressible promoter; (156)..(238) n, full-length KIAA0538 cDNA under the control of Tet-repressible promoter, transfected into P19 cells) DNA: TTAAAACTGCTTACCAGTGGCTGTCTGCGCTGCGGAAGGTGAGCATCAACAACACGGGACTGTTGGGCTCCTACCACCCTGGCGTCTTCCGTGGGGACAAGTGGAGCTGCTGCCACCAAAAAGAGAAGACAGGTCAGGGCTGCGATAAGACCCGGNCACGGGTGACCCTGCAGGAGTGGAATGACCCTNTTGACCGTGACCTTGAGGCCCANCTCATCTACCGGCACCTGCTGGGCGNGGAGGCCATGCTGTG	–	–	–	–	–	very few colonies remaining	almost entirely non-viable	dramatically cytotoxic	detrimental	moderately cytotoxic

Reference: patent US6833237B1, “Genes involved in stroke response and/or regulated by FK506, proteins encoded thereby, and methods of use” (Quark Biotech, Inc., priority 2000, dated 2004)
